Data reported in patent US20020048794A1 (published 2002).

What was measured:
[1] = biological target: 35S-labeled, in vitro translated full length HIF-1 alpha (human, UniProt Q16665 1-826, 35S-methionine labeled); experiment: co-immunoprecipitation with anti-GAL4, in vitro translated proteins
[2] = biological target: T1, VHL (von Hippel-Lindau tumor suppressor protein), full-length (Homo sapiens (Human), UniProt P40337 1-213, 35S-methionine labeled in the in vitro assays); experiment: as above
T1 construct: also called 35S-labeled VHL; 35S-labeled full-length VHL

[3] = biological target: T1, VHL (von Hippel-Lindau tumor suppressor …); experiment: co-immunoprecipitation with anti-FLAG, in vitro translated proteins

B1: GAL4/VHL 114-154 fragment (other)
chain: MKLLSSIEQACDICRLKKLKCSKEKPKCAKCLKNNWECRYSPKTKRSPLTRAHLTEVESRLERLEQLFLLIFPREDLDMILKMDSLQDIKALLTGLFVQDNVNKDAVTDRLASVETDMPLTLRQHRISATSSSEESSNKGQRQLTVSGHLWLFRDAGTHDGLLVNQTELFVPSLNVDGQPIFANITLP
binding result [1]: no binding

B2: GAL4/HIF-1 alpha 778-826 (other)
chain: MKLLSSIEQACDICRLKKLKCSKEKPKCAKCLKNNWECRYSPKTKRSPLTRAHLTEVESRLERLEQLFLLIFPREDLDMILKMDSLQDIKALLTGLFVQDNVNKDAVTDRLASVETDMPLTLRQHRISATSSSEESSNKGQRQLTVSLACRLLGQSMDESGLPQLTSYDCEVNAPIQGSRNLLQGEELLRALDQVN
binding result [2]: no binding

B3: FLAG-tagged mutant N-TAD of HIF-1 alpha (PYI triplet substituted with three aspartic acid residues) (other, not shown: small tags and cut ends)
chain: KLELVEKLFAEDTEAKNPFSTQDTDLDLEMLADDDPMDDDFQLRSFDQLSPLES
notes: also called mt N-TAD; PYI mutant N-TAD
binding result [3]: no binding
